Approximate mole fraction of TioK-MLP complex, stoichiometry N and stoichiometry N (multiple of MW(1:1)) data for 14 molecules are collected here from article PMC6439349.

Assay [1] addresses TioK. Briefly: AUC.
Assay [2] has as its target TioK-Ecm8 complex (not stated | Streptomyces lasaliensis). Briefly: AUC.
In assay [3] the target is TioK-MbtH complex (not stated | Mycobacterium tuberculosis H37Rv) (UniProt P9WIP4). Briefly: […].
In assay [4] the target is TioK-MypaAaA complex (not stated | Mycobacterium paratuberculosis). Briefly: AUC.
For assay [5], the target named is TioK-TioT complex (UniProt Q333U6). Briefly: AUC.
For assay [6], the target named is TioK-MymaAcA complex (not stated | Mycobacterium marinum). Description: AUC.
Assay [7] concerns the target TioK-MyavAcA complex (not stated | Mycobacterium avium). Briefly: AUC.
For assay [8], the target named is TioK-KtzJ complex (not stated | Kutzneria sp. 744). Briefly: AUC.
Assay [9] addresses TioK-MyabAaA complex (not stated | Mycobacterium abscessus). Briefly: AUC.
For assay [10], the target named is TioK. Briefly: […].

In assay [1], KtzJ (natural protein) registered an approximate mole fraction of TioK-MLP complex of 0.92 and a stoichiometry N of 1 MLP per TioK.

With TioK-Ecm8 complex, the stoichiometry N (multiple of MW(1:1)) in [2] is 1.93.

Molecule “TioK-MbtH complex (from UniProt P9WIP4 1-71)” registered a stoichiometry N (multiple of MW(1:1)) in [3] of 2.06.

Molecule TioK-MypaAaA complex yielded a stoichiometry N (multiple of MW(1:1)) in assay [4] of 2.05.

Consider “TioK-TioT complex (from UniProt Q333U6 1-71)”, for which the stoichiometry N (multiple of MW(1:1)) in assay [5] was determined as 1.98.

As to Ecm8 (natural protein), in assay [1], the approximate mole fraction of TioK-MLP complex turned out to be 0.76 and the stoichiometry N came out at 1 MLP per TioK.

In [1], “PA2412 (from UniProt Q9I169 1-72) (natural protein)” registered an approximate mole fraction of TioK-MLP complex of 0.87 and a stoichiometry N of 1 MLP per TioK.

In [6], TioK-MymaAcA complex gave a stoichiometry N (multiple of MW(1:1)) of 1.94.

Consider TioK-MyavAcA complex, for which the stoichiometry N (multiple of MW(1:1)) in [7] was determined as 1.96.

With TioK-KtzJ complex, in [8], the stoichiometry N (multiple of MW(1:1)) is 1.92.

As for TioK-MyabAaA complex, the stoichiometry N (multiple of MW(1:1)) in assay [9] was 1.96.

B1: CouY (natural protein)
chain: MATNPFDDENGVYLLLVNDEGQHSLWPSFAALPKGWTVILDEASRQECLDYVNEHWTDMRPLSLQPAMGDE
In assay [1], B1 gave an approximate mole fraction of TioK-MLP complex of 0.84 and a stoichiometry N of 1 MLP per TioK.

B2: MbtH (natural protein)
chain: MSTNPFDDDNGAFFVLVNDEDQHSLWPVFADIPAGWRVVHGEASRAACLDYVEKNWTDLRPKSLRDAMAED
Consider B2, for which, in assay [10], the approximate mole fraction of TioK-MLP complex is 0.82 and the stoichiometry N worked out at 1 MLP per TioK.

B3: TioT (natural protein)
chain: MSVNPFDDEDGEFYVLVNDEEQHSLWPTFGDVPDGWRIVFGPAGRAESVAYVEENWTDMRPKSLREAMSAA
For B3, in assay [1], the approximate mole fraction of TioK-MLP complex is 0.88 and the stoichiometry N amounted to 1 MLP per TioK.

What is called stoichiometry N is the number of molecules, sites or subunits per partner or assembly.
